Legend:
[1] = target: ([H3.2]·[H3.2K4me3K27me3]) heterotypic nucleosome (UniProt Q71DI3); experiment: Captify Luminex bead-based binding assay; GST-PtSHL titrated to a multiplex panel of PTM-defined homotypic and heterotypic nucleosomes; median fluorescence intensity; EC50^rel
[2] = target: ([H3K4me3K27me3]2) homotypic nucleosome; experiment: as above

GST-PtSHL BAH-PHD (domain or fragment)
fold preference over ([H3.2K4me3]·[H3.2K27me3]) or its comprising PTMs [1]: > 350 fold
fold preference over nucleosomes with each comprising PTM [2]: > 150 fold

Source: publication PMC12947556
